Data published in patent US20160096891A1 (AstraZeneca / MedImmune, published 2016).
Residue numbers refer to the chain shown, from its start.

B1: anti-human B7-H5 antibody 2D3 (hybridoma clone 2D3) (antibody, V domains shown)
VH: QVQLQQSGAELVKPGASVKLSCKASGYTFTSHDINWVRQRPELGLEWIGWIFPGDGSTKFNEKFKGKATLTTDKSSSTAYIQLSRLTSEDSAVYFCARNSFYSMDYWGQGTSVTVSS
VL: DIVMSQSPSSLAVSAGEKVTMSCKSSQSLLNSRTRKNQLAWYQQKPGQSPKLLIYWAFIRESGVPDRFTGSGSGTDFTLTISSVQAEDLAVYYCKQSYNLRTFGGGTKLEIK
notes: constant regions are not; also called Anti-Human B7-H5 Clone 2D3; 2D3 mAb
B2: recombinant anti-human B7-H5 chimeric antibody 2D3, human IgG4P isotype (antibody, V domains shown)
VH: B1 VH
VL: B1 VL
notes: also called recombinant chimeric 2D3; human IgG4P derivative of 2D3
B3: recombinant anti-human B7-H5 chimeric antibody 18C3, human IgG4P isotype (antibody, V domains shown)
VH: B1 VH with L43Q
VL: B1 VL with F58S, I59T
notes: also called recombinant chimeric 18C3; human IgG4P derivative of 18C3
B4: anti-human B7-H5 antibody 18C3 (hybridoma clone 18C3) (antibody, V domains shown)
VH: B1 VH with L43Q
VL: B1 VL with F58S, I59T
notes: constant regions are not; also called Anti-Human B7-H5 Clone 18C3

Experiments:
[1] = molecular target: T1, human B7-H5 expressed on cells (CHO transfectants) (human, UniProt Q9UM44 23-414); assay: flow cytometry on CHO transfectants expressing human B7-H5
T1 construct: also called B7-H7; HHLA2
T1 sequence: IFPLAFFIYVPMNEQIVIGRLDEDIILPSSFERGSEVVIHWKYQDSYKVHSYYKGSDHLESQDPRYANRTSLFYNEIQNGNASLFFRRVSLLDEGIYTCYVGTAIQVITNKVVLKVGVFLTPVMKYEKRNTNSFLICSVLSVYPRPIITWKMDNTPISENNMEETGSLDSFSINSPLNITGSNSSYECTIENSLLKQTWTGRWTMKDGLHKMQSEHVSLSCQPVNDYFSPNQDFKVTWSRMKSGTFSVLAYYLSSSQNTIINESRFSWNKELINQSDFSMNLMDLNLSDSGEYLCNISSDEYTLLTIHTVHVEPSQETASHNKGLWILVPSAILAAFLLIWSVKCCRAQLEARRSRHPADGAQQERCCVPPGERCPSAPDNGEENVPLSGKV

[2] = molecular target: T2, human B7-H5 expressed on cells (CHO transfectants) (UniProt Q9UM44 23-414); assay: FACS binding to CHO cells
T2 chain: T1 sequence

[3] = molecular target: T1, human B7-H5 expressed on cells (CHO …); assay: flow cytometry on CHO cells expressing human B7-H5 (figure legend)
Description: Human B7-H5 FL CHO transfectants were pre-incubated with control supernatant (Panel A) or recombinant chimeric 2D3 (Panel B) and 18C3 supernatants (Panel C), and subsequently stained with biotinylated CD28HhIg fusion protein.
The human B7-H5-binding antibodies of the present invention (antibodies 2D3 and 18C3) were recombinantly converted to a human IgG4P isotype from their native hamster isotype. CHO transfectants that express human B7-H5 were then incubated in the presence of the recombinant antibodies. […] FIG. 15 compares the affinities of antibodies 2D3 and 18C3 for binding to human B7-H5 as expressed on the surface of CHO cells.

Row | Binder | binding result [1] | Kd [2] [nM] | binding result [3]
1 | B1 | binds | ~2.5 | –
2 | B2 | – | – | binds
3 | B3 | – | – | binds
4 | B4 | binds | ~3.8 | –
